How the values were obtained:
[1] = biological target: Human serum albumin (human) (UniProt P02768); assay: NMR (1H-15N HSQC and 15N relaxation); 15N-labelled V57G HCC with and without equimolar HSA (around 0.3 mM each); PBS, 90%/10% H2O/D2O, pH 7.0; 298 K
Human cystatin C (human) = Human cystatin C (human) (UniProt P01034); assay: ITC; 300 uM HSA in the syringe, 30 uM HCC in the cell; PBS; 25.2 °C; MicroCal PEAQ-ITC; single set of identical sites model

Row | Substance | percent of V57G HCC that interacted with HSA [1] [%] | Kd (Human cystatin C (human)) [µM] | dH (Human cystatin C (human)) [kcal/mol] | stoichiometry N (Human cystatin C (human))
1 | V57G mutant of human cystatin C (from UniProt P01034 27-146) (natural protein) | 4 |  |  | 
2 | Human serum albumin (from UniProt P02768 25-609) (natural protein) |  | 1.15 | 1.88 | 0.642

Reference: PMC12368637
